Results from publication PMC7307210, “Small sequence variations between two mammalian paralogs of the small GTPase SAR1 underlie functional differences in coat protein complex II assembly” (The Journal of Biological Chemistry, 2020).

B1: SAR1A (natural protein)
chain: not shown
notes: human SAR1A, full-length (198 residues), with the N-terminal amphipathic helix; also called Secretion-associated Ras-related GTPase 1 A; source: E. coli, purified as GST fusion (GSH-agarose), eluted by thrombin cleavage
B2: SAR1B (natural protein)
chain: not shown
notes: human SAR1B, full-length (198 residues), with the N-terminal amphipathic helix; also called Secretion-associated Ras-related GTPase 1 B; source: E. coli, purified as GST fusion (GSH-agarose), eluted by thrombin cleavage

Target: the molecule itself
Assay: liposome aggregation assay (nanoparticle tracking); 1 μg SAR1 with 100-nm liposomes and GMP-PNP in HKM buffer, 3 h at 37 °C; particle number and size by NanoSight; self-association on a membrane surface

| Protein | binding result |
| --- | --- |
| B1 | binds |
| B2 | binds |
